Measurements published in US20230127087.

Target: Glypican-3 (GPC3) (UniProt P51654)
Experiment: filter
Conditions: n = BzdU (benzyl-modified dU); unit not given; Bmax 0.79; SB18T0.05, 37 C; 32P-labelled aptamer, protein titrated from 100 nM

Sequence of Glypican-3 (GPC3) (P51654 25-554): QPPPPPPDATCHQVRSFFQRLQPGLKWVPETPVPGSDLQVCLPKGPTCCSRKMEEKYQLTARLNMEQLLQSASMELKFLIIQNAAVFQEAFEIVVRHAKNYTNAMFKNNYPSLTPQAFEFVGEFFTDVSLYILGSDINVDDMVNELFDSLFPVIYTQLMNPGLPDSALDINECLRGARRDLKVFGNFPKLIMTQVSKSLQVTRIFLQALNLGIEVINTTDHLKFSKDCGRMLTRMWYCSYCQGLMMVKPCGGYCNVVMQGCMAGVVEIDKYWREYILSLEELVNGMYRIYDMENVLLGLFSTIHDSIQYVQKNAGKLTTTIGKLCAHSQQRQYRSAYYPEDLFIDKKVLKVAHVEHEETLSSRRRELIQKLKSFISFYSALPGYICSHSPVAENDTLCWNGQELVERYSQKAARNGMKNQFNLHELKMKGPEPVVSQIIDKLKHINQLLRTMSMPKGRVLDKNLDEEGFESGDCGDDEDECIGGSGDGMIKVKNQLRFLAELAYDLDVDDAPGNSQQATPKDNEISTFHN

GGGAAGTGAATGCGTTGAATTATGTCCCTTCAGTCATCAC [2428-12-10 (12-10)]
Kd: 1.5
